{"source": "patent US20090163698A1", "about": "(published 2009)", "binders": {"B1": {"name": "CNTO 95 Fab′ (anti-alpha-V Fab′ made by pepsin cleavage of the parent antibody, reduction and reoxidation), conjugated to MalPEG-DSPE on the surface of … (Fab, V domains shown)", "VH": "QVQLVESGGGVVQPGRSRRLSCAASGFTFSRYTMHWVRQAPGKGLEWVAVISFDGSNKYYVDSVKGRFTISRDNSENTLYLQVNILRAEDTAVYYCAREARGSYAFDIWGQGTMVTVSS", "VL": "EIVLTQSPATLSLSPGERATLSCRASQSVSSYLAWYQQKPGQAPRLLIYDASNRATGIPARFSGSGSGTDFTLTISSLEPEDFAVYYCQQRSNWPPFTFGPGTKVDIKR", "modifications": "free sulfhydryl near the C-terminus conjugated to maleimide-PEG-DSPE inserted in the liposome"}}, "molecular_target": "murine αVβ3/5 integrin (murine, UniProt P43406 31-1044)", "sequence (P43406 31-1044)": "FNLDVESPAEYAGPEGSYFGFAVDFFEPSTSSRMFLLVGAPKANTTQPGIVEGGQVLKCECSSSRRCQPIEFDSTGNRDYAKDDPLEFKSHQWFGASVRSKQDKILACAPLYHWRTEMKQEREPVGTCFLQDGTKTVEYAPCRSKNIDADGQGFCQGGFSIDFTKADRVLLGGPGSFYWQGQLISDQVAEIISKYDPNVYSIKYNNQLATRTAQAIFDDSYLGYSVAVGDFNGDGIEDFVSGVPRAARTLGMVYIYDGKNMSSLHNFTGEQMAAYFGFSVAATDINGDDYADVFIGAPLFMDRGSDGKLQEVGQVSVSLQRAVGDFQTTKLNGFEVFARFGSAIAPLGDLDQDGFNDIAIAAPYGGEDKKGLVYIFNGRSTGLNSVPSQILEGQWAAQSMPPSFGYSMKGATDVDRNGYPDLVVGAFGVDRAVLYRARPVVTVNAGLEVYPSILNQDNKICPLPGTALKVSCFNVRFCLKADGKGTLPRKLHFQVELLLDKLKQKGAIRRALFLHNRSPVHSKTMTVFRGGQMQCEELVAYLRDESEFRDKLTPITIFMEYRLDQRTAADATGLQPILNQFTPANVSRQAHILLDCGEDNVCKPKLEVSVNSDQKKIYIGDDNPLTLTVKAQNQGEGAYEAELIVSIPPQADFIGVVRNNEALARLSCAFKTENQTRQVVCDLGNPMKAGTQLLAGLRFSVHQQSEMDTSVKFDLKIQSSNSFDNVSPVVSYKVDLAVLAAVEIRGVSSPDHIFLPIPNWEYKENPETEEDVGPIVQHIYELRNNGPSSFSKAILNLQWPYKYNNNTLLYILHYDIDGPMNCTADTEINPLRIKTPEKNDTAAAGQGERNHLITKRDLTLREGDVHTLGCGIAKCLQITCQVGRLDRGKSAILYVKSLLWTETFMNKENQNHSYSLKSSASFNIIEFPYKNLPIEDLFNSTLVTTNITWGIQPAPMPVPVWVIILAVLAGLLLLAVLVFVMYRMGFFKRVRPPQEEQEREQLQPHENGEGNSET", "test": "cell-based or functional assay", "data": [{"binder": "B1", "values": [{"measurement": "Increase (ratio of IC50 of liposome-entrapped doxorubicin to IC50 of 90:1 targeted liposomes), B16-F10 cells", "result": 1, "unit": "fold"}]}]}
